In the DeepSol protein solubility set:

Assay: soluble on expression in E. coli; label from the status in PepcDB or PDB records

Sequence | soluble on expression in E. coli
MKTLYDKLWSDHVVHAESDDPNGMVILYIDRHLVHEVTSPQAFESLKLAGRKPWRTGSILAVADHNVPTTDRSSGISDPVSRLQVETLDQNCEEFAITEFRMNDERQGIVHVIGPEQGATLPGMTVVCGDSHTSTHGAFACLAFGIGTSEVEHVLATQCLVARKSKTMLVRVEGDLPPGVTAKDIALAVIGEIGTAGGTGYAIEFAGSAIRSLSMEGRMTLCNMAIEAGARAGMVGADEVTIDYIKGRPFAPQGALWDQAVAYWRTLKSDEDAVFDRMVELKAVNIKPQVTWGTSPEMVTTVDGYVPDPADISDPTKRHDVEHALGYMGLKPKMPIQEITLDKVFIGSCTNSRIEDLRAAAEIVKGKRIAPNIRLAMVVPGSGLVKSMAEKEGLDKIFLSAGFEWREPGCSMCLAMNDDRLLPGERCASTSNRNFEGRQGPGGRTHLVSPAMAAAAAIAGHFVDVRSFIR | not soluble
MGSDKIHHHHHHMSTKSLPMDQILNELRSYDRSEHILNHGFDLGTAWWKIELRKAAWTPSGPLAEPTESVRIDRRRLFGMASEIHTGDIDPVDFTLSVVLWGSGSSRRNNRARIQSIVDVEGRVALRQALELASTDAEASFAAFRTNGRNAFAYLGPAFFTKLMYFAGAGSKSHDAYIVDHRVLQTLSRTPAGAGLRAIHNYGPNTYRRACSALEVIASAARVSGCPELADCTGDLVERWAFDVAGAS | not soluble
MAHHHHHHMTLIENLNSDKTFLENNQYTDEGVKVYEFIFGENYISSGGLEATKKILSDIELNENSKVLDIGSGLGGGCMYINEKYGAHTHGIDICSNIVNMANERVSGNNKIIFEANDILTKEFPENNFDLIYSRDAILHLSLENKNKLFQKCYKWLKPTGTLLITDYCATEKENWDDEFKEYVKQRKYTLITVEEYADILTACNFKNVVSKDLSDYWNQLLEVEHKYLHENKEEFLKLFSEKKFISLDDGWSRKIKDSKRKMQRWGYFKATKN | soluble
MTDSPSPIDSSFDASDVATPCTVIAAKISLRNRNGLEEDQENLDSFDAFTETHETQESKNIAHGEHEEDVSNIYVDDFSKEFGDTVSSVMEPLPKPLTFARTITKVYCHLDDQEHPYMVEVHVPPDCITLRDVKRKLMRTNFKYYCIALDPDTGLEVKAEVRDDSRRLYPLKNGRFELYLLTVEGSVHSDTSSGRHRRKQDGSSKGSSGSREYLRAAHHYDNPTPFSDDESQASSLPTYVKKAHAYNRKHAPQAYERHLPHMKHNNRHNHHRQNHYEESTFDVTTESDDHYRDGVTYYDEDEDDSRSINTDLTSVSQVHLKQKWRQQQKEMRNKWKRMPSISTASSSFSSITESSMGLEVITVRLNLETIPLGMTPSGHTNARGDAGLYVGDIQDRGAVALDGRIDIGDMIVGINEISLGNYSNKEAVQLLREAVQRQYLTLTIAKTGDPKQNAFPRNPRAEPIRPIDPNEWVKHATNAMKAMPSISEGSGLDIKDRYWFKIPIPMSFLGTDLVEWLVKHVQGLETKKKAREFAEEMLKLGYIRPGVGKQSFTKECYYVMGDECADYTQLRGPDGGYKYPQSHASSASGHSSNNLIFPPSMYPPQPPTAGAVQSSKFEGREMIREVKRVGVVEEAREGTSNYHGSLHHSAVGLV | soluble
MRNTVNILGIPIDNVSMDEALNVVKGFLSEDRVHTVYTPNSEIMMAAQRDPELKKILCEADLLVPDGAGVVLASKINGCPLKERVAGFDLTNMLFSDEAAKAVNFFFLGGKPGVAEEAYKNLLDRKININVVGIRNGYFTKDEEEEIIRQINDSNTDVLLVALGAPKQEKWIHANKEKLKVKVCIGVGGTFDVLAGRAKRAPVFFQKHGLEWLYRLYKEPWRFVRMLDLPRFILRVIANKIRPEKPERA | soluble
MKLAVIAANGQAGKAIVEEAVKRGHEVTAIVRSENKSQAESIIKKDLFELTKDDLTGFDAVISAFGAYTPDTLPLHSKSIELFNQLLAGTQTRFLVVGGAGSLYIDETKTTRLLDTPDFPEEFKPLAKAQADELDLLRTKNNLNWTFVSPAVDFIPDGEKTGNYILAGEIFTTNEKGISQISYADYAIGLVDELEKGHHIKERISLLEKLEHHHHHH | soluble
MTCDDWNSYIQVNIYGKTIEGLQQQGVVLESLLNNVGCSKVWIMEGSVCTNPRPESSTHSEESTIEPVVPLSTTLATNKLPRFSTPAIGHSNNNSSKNFTLNLAEKLSEILSDDDKTDEFLENSHQSETSKDDVIKDLLEEMVQTVANSNKPPILLSTTLANVGVPRFSTPIKPQHALNRDFTMNMTEMISEIDSNYEGYELFDDSSNDCTTLTPNCQEVESSFYRALSEAASSIVPYQEGKRRSSRRLSTLSSLKETVKVEPAVSKLTKRRRLTPVECSSETMIPHSQPIPLDTCSDQPIFPNSTHNAIQSDGFSYEQPICEFGDSQLFLSAKSLCTEPNSSIAEDVKPVLTVSDSDITASNRNNIDDHNRVIELSTEV | not soluble
KSEHETRLEAKLFEDYSSVVRPVEDHREIVQVTVGLQLIQLINVDEVNQIVTTNVRLKQQWVDYNLKWNPDDYGGVKKIHIPSEKIWRPDVVLYNNADGDFAIVKFTKVLLDYTGHITWTPPAIFKSYCEIIVTHFPFDEQNCSMKLGTRTYDGSAVAINPESDQPDLSNFMESGEWVIKEARGWKHWVFYSCCPTTPYLDITYHFVMQRLP | soluble
MKLSESRGETEKHRRQQHFEHELKNMISSLTHMGGDKAGPSQYDEEEDGIRVITLSGSNLGATMKTELDNNHGDRDQNGDHELDFLSTYVNSNFQAVNNSIMIGAKYETHDPGVHLDISGDVEKPSVKIPARSSRGKKGKTPARSDRRESEHTN | soluble
MSTAEFAQLLENSILSPDQNIRLTSETQLKKLSNDNFLQFAGLSSQVLIDENTKLEGRILAALTLKNELVSKDSVKTQQFAQRWITQVSPEAKNQIKTNALTALVSIEPRIANAAAQLIAAIADIELPHGAWPELMKIMVDNTGAEQPENVKRASLLALGYMCESADPQSQALVSSSNNILIAIVQGAQSTETSKAVRLAALNALADSLIFIKNNMEREGERNYLMQVVCEATQAEDIEVQAAAFGCLCKIMSKYYTFMKPYMEQALYALTIATMKSPNDKVASMTVEFWSTICEEEIDIAYELAQFPQSPLQSYNFALSSIKDVVPNLLNLLTRQNEDPEDDDWNVSMSAGACLQLFAQNCGNHILEPVLEFVEQNITADNWRNREAAVMAFGSIMDGPDKVQRTYYVHQALPSILNLMNDQSLQVKETTAWCIGRIADSVAESIDPQQHLPGVVQACLIGLQDHPKVATNCSWTIINLVEQLAEATPSPIYNFYPALVDGLIGAANRIDNEFNARASAFSALTTMVEYATDTVAETSASISTFVMDKLGQTMSVDENQLTLEDAQSLQELQSNILTVLAAVIRKSPSSVEPVADMLMGLFFRLLEKKDSAFIEDDVFYAISALAASLGKGFEKYLETFSPYLLKALNQVDSPVSITAVGFIADISNSLEEDFRRYSDAMMNVLAQMISNPNARRELKPAVLSVFGDIASNIGADFIPYLNDIMALCVAAQNTKPENGTLEALDYQIKVLEAVLDAYVGIVAGLHDKPEALFPYVGTIFQFIAQVAEDPQLYSEDATSRAAVGLIGDIAAMFPDGSIKQFYGQDWVIDYIKRTRSGQLFSQATKDTARWAREQQKRQLSL | soluble
MPTWEELYKNAIEKAIKSVPKVKGVLLGYNTNIDAIKYLDSKDLEERIIKAGKEEVIKYSEELPDKINTVSQLLGSILWSIRRGKAAELFVESCPVRFYMKRWGWNELRMGGQAGIMANLLGGVYGVPVIVHVPQLSRLQANLFLDGPIYVPTLENGEVKLIHPKEFSGDEENCIHYIYEFPRGFRVFEFEAPRENRFIGSADDYNTTLFIREEFRESFSEVIKNVQLAILSGLQALTKENYKEPFEIVKSNLEVLNEREIPVHLEFAFTPDEKVREEILNVLGMFYSVGLNEVELASIMEILGEKKLAKELLAHDPVDPIAVTEAMLKLAKKTGVKRIHFHTYGYYLALTEYKGEHVRDALLFAALAAAAKAMKGNITSLEEIREATSVPVNEKATQVEEKLRAEYGIKEGIGEVEGYQIAFIPTKIVAKPKSTVGIGDTISSSAFIGEFSFTL | soluble
MGSDKIHHHHHHMVKLKPKGPFTRIPRATTIFGAISNAIRLLYGRKEVEKFIAGFINDDAKITSAFPYDGETYFLPKPLSVDLVVKTLFETKKEDVKKVKKKDYIPLESFEKALRLEEFEVKELPYKVIELPKVSLDRVSNDSSLYFWDLVTFKENSGLYFLYDGSNKLFEKYIVPAMRLLEDQGIGGKGTWGYGLFEVEIEELEIEEPRENSYVTLSPFVPENETSLILWKIVKLGGWSQGKRRPKIPMVVEGSLSREDRGKMITLDLSLSYPVYVYARSFLVRASLPEEAVGHV | not soluble
MAHHHHHHMLRQSLLSLAKVYGAVPPLGAAQGHRLLHGKREREGSLFAVANDVKRDERLLRQQLNALLEEERMPMQARLQRSEAVSSHEAVPQTPLVDLPGVERRRDLPADPITRLFFQHKGDHALYYGTYDKPSVQDDDRVQIEKRVPRRREENLYTPIYDFCHRIREATEQRKRFVVVPSTIETRGCARVMHDHGLVAGFRDFHNDRAFAVELKYFQGDSTINVIEPCSYDGRTEFEWSPKMMRRLLNTHGIHNRLVVYICRTADNRIIDHIHAVKENIGGRGLMMVH | not soluble
MGSDKIHHHHHHMKLNLRSLEAFRETMLSGSATAAAGRMGLTQPAVSRLIAQLEQEVGFELFYRERGRLSPTPEALIIYDEIDLAFGGLERVDALARDIAAFNTGLLKIVAPPSLSESVLSTILPRFMARFPKVRIAIESRSTATARAMVANRTVDCGFVKLPLDRSDISTVTLSTSETVCVLPDTHPLTAHEVLTPELLRGEPLVLLGAGTWTRRQIDDAFRERGVRPDVRVETHTVGSACALAAGGLGVAIVNALLADNFARPGVAIRVFRPQILHEYAFMTSALAPMNRLAAAFLEEAQTFFREQAR | not soluble
